In assay [1] the target is acid-labile sub-unit (ALS) of insulin like growth factor binding protein complex (human) (UniProt P35858). The assay is described as follows: competition of acidified-neutralized serum with cross-linked BP-53-IGF-I tracer in the routine ALS assay.
Assay [2] has as its target IGF affinity column loaded with BP-53 (BP-53 non-covalently bound to agarose-IGF) (human) (UniProt P17936). The assay is described as follows: affinity chromatography of DEAE-Sephadex ALS fractions on the IGF column loaded with BP-53.
Assay [3] deals with endogenous BP-53 of human serum (human) (UniProt P17936). The assay is described as follows: DEAE-Sephadex peaks A and B mixed for 60 min at 22° C, Superose-12, BP-53 RIA.

Some results are limits rather than exact numbers.

As a reminder, the IC50 is the midpoint of a concentration-inhibition curve.

Sequence of acid-labile sub-unit (ALS) of insulin like growth factor binding protein complex (human) (P35858 28-605, one chain of several): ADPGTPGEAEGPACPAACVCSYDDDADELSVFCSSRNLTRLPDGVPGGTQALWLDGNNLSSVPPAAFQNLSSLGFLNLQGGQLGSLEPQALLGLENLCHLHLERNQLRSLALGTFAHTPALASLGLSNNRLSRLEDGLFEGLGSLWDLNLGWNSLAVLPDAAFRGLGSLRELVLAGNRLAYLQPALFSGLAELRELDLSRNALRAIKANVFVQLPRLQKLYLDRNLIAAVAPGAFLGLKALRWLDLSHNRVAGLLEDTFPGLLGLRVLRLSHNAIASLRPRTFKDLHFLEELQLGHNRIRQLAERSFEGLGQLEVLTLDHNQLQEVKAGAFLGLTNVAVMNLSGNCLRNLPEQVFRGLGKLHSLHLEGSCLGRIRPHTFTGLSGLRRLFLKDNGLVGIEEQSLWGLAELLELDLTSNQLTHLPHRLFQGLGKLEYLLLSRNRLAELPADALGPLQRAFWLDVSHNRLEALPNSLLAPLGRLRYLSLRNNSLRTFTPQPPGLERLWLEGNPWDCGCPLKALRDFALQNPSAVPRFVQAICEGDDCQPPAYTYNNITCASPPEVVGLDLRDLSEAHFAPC
Sequence of acid-labile sub-unit (ALS) of insulin like growth factor binding protein complex (P35858 28-605, one chain of several): as above

In assay [1], “endogenous BP-53 of human serum (from UniProt P17936 28-291)” yielded an IC50 of 0.2 to 0.25 µg/mL and a concentration for full displacement of 1 µg/mL.
For the substance “acid-labile sub-unit (ALS) of insulin like growth factor binding protein complex (from UniProt P35858 28-605)”, the percent of ALS activity retained in assay [2] was above 90%. Moreover, the percent of BP-53 activity shifted from 30-60K to 150K in assay [3] was above 50%.

For the origin of these results see patent publication US6465423.
